These results are taken from paper PMC12422735.

In the data set the test system is Δ40p53β (TS, purified). Put plainly: SPR. Conditions: Hill slope fit; SPR: 25 mM HEPES pH 7.5, 200 mM NaCl, 0.5 mM TCEP, 0.005% Tween-20, 20 °C; pull-down: 50 mM HEPES pH 7.5, 200 mM NaCl, 0.1% Tween-20, 0.5 mM TCEP, 4 °C.

p21 RE 20 bp had a binding signal (fold lower affinity than DBD-OD) of 280.
